In publication PMC11976907 (Nature Communications, 2025):

Target: T1, human TEX10 (43-929), His6-MBP fusion (human, UniProt Q9NXF1 43-929)
T1 sequence (looked up): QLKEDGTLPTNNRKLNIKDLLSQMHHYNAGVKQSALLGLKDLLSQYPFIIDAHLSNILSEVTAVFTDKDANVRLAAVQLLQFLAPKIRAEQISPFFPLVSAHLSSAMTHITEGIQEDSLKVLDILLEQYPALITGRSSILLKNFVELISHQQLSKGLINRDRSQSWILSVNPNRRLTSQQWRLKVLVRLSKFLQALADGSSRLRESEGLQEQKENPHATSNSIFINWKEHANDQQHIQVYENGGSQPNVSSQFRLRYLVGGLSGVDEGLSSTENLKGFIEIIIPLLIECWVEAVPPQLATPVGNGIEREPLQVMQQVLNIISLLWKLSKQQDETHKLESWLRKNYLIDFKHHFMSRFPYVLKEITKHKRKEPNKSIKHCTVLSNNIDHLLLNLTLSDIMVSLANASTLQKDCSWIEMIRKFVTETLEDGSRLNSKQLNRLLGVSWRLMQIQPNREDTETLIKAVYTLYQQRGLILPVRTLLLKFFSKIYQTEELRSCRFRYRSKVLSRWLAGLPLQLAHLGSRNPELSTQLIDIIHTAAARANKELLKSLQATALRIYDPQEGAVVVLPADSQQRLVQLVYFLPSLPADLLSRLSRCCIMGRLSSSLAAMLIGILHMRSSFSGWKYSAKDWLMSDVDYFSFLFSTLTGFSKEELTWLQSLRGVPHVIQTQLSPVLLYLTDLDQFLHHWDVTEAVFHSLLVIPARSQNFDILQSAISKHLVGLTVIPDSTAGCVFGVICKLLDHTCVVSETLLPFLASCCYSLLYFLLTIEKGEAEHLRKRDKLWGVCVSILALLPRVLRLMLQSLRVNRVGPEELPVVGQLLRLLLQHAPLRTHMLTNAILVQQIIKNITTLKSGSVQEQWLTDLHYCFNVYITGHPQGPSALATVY
Assay: cryo-EM structure

B1: human PELP1 (residues 1-642, Rix1 domain) (domain or fragment)
chain: not shown
**Q.** Does B1 bind?
**A.** binds
